First the molecules themselves.
B1: GFR-binding compound SEQ ID NO: 57 (peptide)
peptide: VPTHHSAISTLYLELAGEKPLKNYQFLQHNK
B2: GFR-binding compound SEQ ID NO: 58 (peptide)
peptide: VSQDLSAISTLYLKIVRKEPLKNYQEMVEE
B3: GFR-binding compound SEQ ID NO: 56 (peptide)
peptide: RNVQCRPTQLEPLPIVYYEIVRKKPEQLSNTLEDHLA
modifications: not fully specified
B4: GFR-binding compound SEQ ID NO: 61 (peptide)
peptide: RNVQCRPTQLEPLPIVYYEIVRKKPEQLSNTLEDHLA
modifications: not fully specified
B5: GFR-binding compound SEQ ID NO: 59 (peptide)
peptide: NDEGLECVPTEERPVQVRKIRIKPHQGQKKATVFLQHNK
modifications: not fully specified

Where no end group is shown, it is not given here.

One experiment concerns osteosarcoma cells. Briefly: Immunofluorescence of cell adhesion and morphology on grafted polymer scaffolds (actin, vinculin, DAPI). In kind it is cell-based. The following applies: polymer scaffold covalently modified with mixture of GFR-binding compound and RGD peptide, 24 hours of culture. On the procedure: FIG. 9 is (a) a representation of a Quantitative Real Time PCR analysis of the expression of DMP-1, SCT and RANK-L in neoplastic cells (osteosarcoma cells) cultured on a native polymer scaffold (control) and on a polymer scaffold grafted with a mixture comprising a GFR-binding compound as defined in the present disclosure and a RGD peptide, after 24 hours of culture, (b) immunofluorescence staining of a representative neoplastic cell (osteosarcoma cells) cultured on a polymer scaffold grafted with a mixture comprising a GFR-binding compound as defined in the present disclosure (ID SEQ NO: 2) and a RGD peptide, after 24 hours of culture. The actin filaments were immunostained by using Alexa 488-phalloidin. The focal adhesions were represented by immunostaining with anti-vinculin. The nucleus was stained with DAPI and is represented by a circle in the center of the cell. Scale bar: 5 μm. (c) is a diagram representing the grafting density of a radiolabeled GFR-binding compound as defined in the present disclosure covalently grafted on a polymer scaffold and of a radiolabeled GFR-binding compound and a non-labeled RGD peptide both grafted on a polymer scaffold. The measurements were performed by using radioactivity quantification (no significant difference was observed). […]
Consider “SEQ ID NO: 2: GFR-binding compound as defined in the present disclosure, grafted with a RGD peptide on a polymer scaffold (KVGKASSAPTKLSAISMLYLDDMGVPTLKNYQNMVVR; also: grafted with RGD peptide on polymer scaffold)”, for which the “morphology of neoplastic cells (immunofluorescence)” value was “Spheroid-like structures of neoplastic cells become predominant”.

A further experiment concerns the target growth factor receptors. Briefly: cell-based or functional assay.
Details: not given
In turn, B1 yielded a p-Smad1/5/8 (%) of 38%.
As to B2, the p-Smad1/5/8 (%) came out at 49%.
On to B3, for which the p-Smad1/5/8 (%) was determined as 47%.
B4 gave a p-Smad1/5/8 (%) of 44%.
Still for that read-out and setting: to B5 belongs 34%.

(Values after US20190290729A1, “PHARMACEUTICAL ASSOCIATION OF GROWTH FACTOR RECEPTOR AGONIST AND ADHESION PROTEIN INHIBITOR FOR CONVERTING A NEOPLASTIC CELL INTO A NON-NEOPLASTIC CELL AND USES THEREOF” (HISTIDE AG, priority 2015, published 2019).)
